Test results taken from the supplement of paper PMC10126150.
± gives the standard deviation of the averaged measurements.

System: ATP
Experiment: switch fluorescence ratio, 500 uM ATP over buffer (Cy3 cluster intensity, sum of 5 cycles each) (fold (ratio)); higher = stronger signal-on switching upon ATP binding; sequences stand for … in TCGTCGGCAGCGTCAGATGTGTATAAGAGACAGTTTTTTTTTTTTTTTTTTTTTTTTT…TC
Settings: aptamer strand: ATP DNA aptamer (quencher-CACCTGGGGGAGTATTGCGGAGGAAGG + anchor), 100 nM annealed; ATP concentration: 500 uM
Summary of the method: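 Values give the fluorescence ratio for each switch-domain sequence, averaged from per-cluster ratios of summed target-cycle to summed buffer-cycle Cy3 intensity. The Cy3-labelled switching-strand clusters sat on a modified Illumina MiSeq flow-cell, were annealed to 100 nM quencher-labelled ATP aptamer, and were imaged in selection buffer, then after 15 min with 500 uM ATP at 22 °C. Five cycles ran with NaOH stripping and re-annealing between them, and clusters outside 100-1000 RFU were excluded.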
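Note: ATP exposure 15 min at 22 °C before imaging.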

Sequence | switch fluorescence ratio
AACCTTTATA | 1.01 ± 0.012
AACCTTTCTT | 1.46 ± 0.041
AACGAAAGGG | 1.03 ± 0.074
AACGACACAT | 1.46 ± 0.014
AACGACGACG | 1.16 ± 0.05
AACGATGAAG | 1.01 ± 0.043
AACGATTTAT | 0.9936 ± 0.0068
AACGCCGGCC | 1.01 ± 0.057
AACGGCCCTG | 1.03 ± 0.026
AACGGCTA | 1.047 ± 0.0045
AACGGCTTCA | 1.057 ± 0.0029
AACGGGCCAC | 1.079 ± 0.0077
AACGGGGACT | 1.05 ± 0.063
AACGGGGGAG | 0.979 ± 0.021
AACGGGGTTA | 1.04 ± 0.06
AACGGGTGAG | 0.9856 ± 0.0092
AACGGTCAAA | 1.02 ± 0.028
AACGGTTAAA | 1.011 ± 0.0022
AACGTAGTTT | 1.02 ± 0.029
AACGTCTTTT | 0.9826 ± 0.0038
AACGTGGCGT | 1.023 ± 0.0066
AACGTGTTGG | 1.013 ± 0.0015
AACGTTAGGT | 0.9704 ± 0.0022

Sequence | switch fluorescence ratio
AACGTTGGAC | 1.1 ± 0.029
AACGTTGGGC | 1.03 ± 0.059
AACGTTGGTT | 1.01 ± 0.012
AACGTTGTTG | 0.976 ± 0.044
AACTAAGGGA | 0.9949 ± 0.0068
AACTAAGTGG | 0.967 ± 0.017
AACTACTGTG | 1.03 ± 0.056
AACTAGACCT | 1.42 ± 0.019
AACTAGGTCG | 0.974 ± 0.058
AACTATAAGA | 1.06 ± 0.1
AACTATGAAC | 1.03 ± 0.029
AACTATTAGA | 0.952 ± 0.018
AACTCAGGCG | 1.039 ± 0.0066
AACTCCACGA | 1.26 ± 0.32
AACTCCAGGT | 1.2 ± 0.011
AACTCGGTCC | 1 ± 0.061
AACTCGGTCG | 1.04 ± 0.051
AACTCTCGGG | 1 ± 0.014
AACTCTGGTT | 0.968 ± 0.048
AACTCTGTCT | 1 ± 0.032
AACTGAGGGA | 1.022 ± 0.0069
AACTGCTATC | 1.22 ± 0.036
AACTGGAACT | 1.03 ± 0.032

Sequence | switch fluorescence ratio
AACTGTTGG | 0.9895 ± 0.006
AACTTAAGGG | 1.003 ± 0.0092
AACTTAATG | 0.9926 ± 0.0025
AACTTACACG | 1.2 ± 0.018
AACTTATCGG | 1.01 ± 0.036
AACTTGGGGG | 1.021 ± 0.0048
AACTTGTGTG | 0.989 ± 0.042
AACTTTGGGG | 1.01 ± 0.068
AAGAAAGGCT | 0.982 ± 0.033
AAGAAAGTCT | 0.995 ± 0.068
AAGAAATGTA | 1.013 ± 0.0063
AAGAAATTGG | 0.9446 ± 0.0027
AAGAACGGTA | 1.06 ± 0.043
AAGAAGAGGG | 1.02 ± 0.021
AAGAAGGGAA | 1.004 ± 0.0068
AAGAAGTTGG | 0.985 ± 0.038
AAGAATATAT | 0.991 ± 0.018
AAGAATCTGC | 0.985 ± 0.051
AAGAATGTG | 0.9474 ± 0.0022
AAGAATTTTT | 1 ± 0.023
AAGACAGGCC | 1.03 ± 0.014
AAGACGAATT | 1.01 ± 0.058
AAGACGTGGA | 0.9993 ± 0.0064

Sequence | switch fluorescence ratio
AAGACGTGGT | 0.992 ± 0.008
AAGACTGAGC | 1.033 ± 0.0071
AAGACTTAT | 1.01 ± 0.053
AAGACTTTGT | 1 ± 0.024
AAGAGAAGTT | 0.9938 ± 0.0088
AAGAGAATGG | 0.984 ± 0.052
AAGAGACAGA | 1.25 ± 0.066
AAGAGAGTTT | 0.9837 ± 0.00066
AAGAGCCAAA | 0.9735 ± 0.0097
AAGAGCGGAC | 1.11 ± 0.047
AAGAGCGGGG | 0.989 ± 0.043
AAGAGGACGC | 1 ± 0.066
AAGAGGCGGT | 1.01 ± 0.022
AAGAGGGCGT | 1.012 ± 0.0064
AAGAGGGGG | 0.977 ± 0.026
AAGAGGTCG | 1.02 ± 0.046
AAGAGGTGCA | 0.989 ± 0.034
AAGAGGTTAC | 0.973 ± 0.049
AAGAGTCTT | 0.963 ± 0.042
AAGAGTGGGG | 1.02 ± 0.049
AAGAGTTCTG | 1 ± 0.011
AAGAGTTGAC | 0.947 ± 0.059
AAGATAACCT | 1.87 ± 0.23

Sequence | switch fluorescence ratio
AAGATACGCT | 1.06 ± 0.065
AAGATATCTG | 1.01 ± 0.032
AAGATCATGG | 0.98235 ± 0.00028
AAGATCCGCT | 1.13 ± 0.027
AAGATGACTA | 0.986 ± 0.042
AAGATGGGGC | 0.998 ± 0.038
AAGATGGGGG | 0.998 ± 0.033
AAGATGGTTA | 0.97 ± 0.01
AAGATGTTTT | 1.01 ± 0.04
AAGATTAGTC | 0.974 ± 0.041
AAGATTGTCG | 1.14 ± 0.039
AAGATTGTGT | 0.9849 ± 0.0017
AAGATTTTGA | 0.936 ± 0.063
AAGATTTTTG | 1.01 ± 0.041
AAGCAAAGGT | 1.02 ± 0.027
AAGCAAGGGA | 1.065 ± 0.01
AAGCAGATAG | 1.46 ± 0.048
AAGCAGTCGA | 1.09 ± 0.015
AAGCATCACG | 1.07 ± 0.011
AAGCCCTACA | 1.01 ± 0.03
AAGCCGATTC | 1.03 ± 0.0068
AAGCCGGATG | 1.005 ± 0.0095
AAGCCGGGGG | 0.987 ± 0.019

Sequence | switch fluorescence ratio
AAGCCTTTAG | 0.974 ± 0.047
AAGCGAACAT | 1.08 ± 0.076
AAGCGAGG | 0.9872 ± 0.0032
AAGCGCGAGG | 1.03 ± 0.022
AAGCGGCGGG | 1.01 ± 0.019
AAGCGGGAGC | 1.026 ± 0.0049
AAGCGGTATC | 1.03 ± 0.021
AAGCGGTCCG | 1.02 ± 0.025
AAGCTACGTG | 1.05 ± 0.013
AAGCTATCGG | 0.994 ± 0.016
AAGCTCCTTT | 0.968 ± 0.011
AAGCTCTGAG | 1.03 ± 0.017
AAGCTCTTGT | 1.01 ± 0.03
AAGCTGTAGC | 1.03 ± 0.048
AAGGAAAAGT | 1.01 ± 0.035
AAGGAAAATT | 0.973 ± 0.02
AAGGAAAGGT | 1.061 ± 0.0073
AAGGAAATGT | 1 ± 0.014
AAGGAAATTA | 1.01 ± 0.058
AAGGAACGGC | 0.963 ± 0.043
AAGGAAGCTT | 1.02 ± 0.1
AAGGAATACA | 1.07 ± 0.041
AAGGAGGCAA | 1.255 ± 0.0085

Sequence | switch fluorescence ratio
AAGGAGGGAC | 0.982 ± 0.011
AAGGAGGGGA | 0.978 ± 0.02
AAGGAGGGTT | 0.984 ± 0.025
AAGGAGGTCC | 0.97 ± 0.066
AAGGAGGTTT | 1.01 ± 0.031
AAGGAGTCGG | 0.987 ± 0.044
AAGGATAGTT | 1.01 ± 0.013
AAGGATCTAC | 1.01 ± 0.027
AAGGATCTGG | 0.977 ± 0.026
AAGGATGGTG | 0.957 ± 0.069
AAGGCAAAAT | 1.04 ± 0.029
AAGGCATGAT | 1.0128 ± 0.00018
AAGGCCCCGT | 1.02 ± 0.016
AAGGCCGGCG | 1.01 ± 0.017
AAGGCCTTGA | 0.988 ± 0.049
AAGGCGAGGG | 1.01 ± 0.015
AAGGCGGCAC | 1.05 ± 0.02
AAGGCGGGGG | 0.986 ± 0.016
AAGGCGTAG | 0.984 ± 0.1
